Data taken from patent US20180258175A1 (ABLEXIS, published 2018).

Tests used:
[1] = molecular target: T1, human CD115 extracellular domain (Sino Biological 10161-H08H) (human, UniProt P07333 20-517); experiment: competition ELISA, competitor TMR 100A;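 further: clonal anti-huCD115 hybridoma supernatants tested for binding with the competitor antibody present, clones failing to bind are assigned to the competitor's epitope bin; low signal means same epitope bin as the mouse competitor antibody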
T1 construct: extracellular domain; bought recombinant protein; also called huCD115; hu-CD115

[2] = molecular target: T1, human CD115 extracellular domain (Sino …); experiment: competition ELISA, competitor TMR 35A;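 further: clonal hybridoma supernatant antibodies added to wells after the competitor mouse antibody, lost binding signal puts an antibody in that competitor's epitope bin; low signal means same epitope bin as the mouse competitor antibody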
[3] = molecular target: T1, human CD115 extracellular domain (Sino …); experiment: competition ELISA, competitor TMR 44B;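 further: binding of antibodies from single-clone hybridoma supernatants to huCD115 measured with the competitor antibody present, a drop in signal meaning both share an epitope bin; low signal means same epitope bin as the mouse competitor antibody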
[4] = molecular target: T1, human CD115 extracellular domain (Sino …); experiment: competition ELISA, competitor TMR 20A;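 further: epitope binning by ELISA, anti-huCD115 hybridoma supernatant antibodies tested for binding to huCD115 with the competitor antibody present, loss of binding placing them in the competitor's bin; low signal means same epitope bin as the mouse competitor antibody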
[5] = molecular target: T1, human CD115 extracellular domain (Sino …); experiment: competition ELISA, competitor TMR 95A
[6] = molecular target: T1, human CD115 extracellular domain (Sino …); experiment: competition ELISA, competitor TMR 24A
[7] = molecular target: T1, human CD115 extracellular domain (Sino …); experiment: SPR ProteOn, supernatant mAb captured on anti-mouse IgG, Hu CD115 analyte

B1: CCK-511A (antibody, V domains shown)
VH: EVQVVESGGGLVQPGKSLRLSCAASGFPFSVYWMTWVRQAPGKGLEWVANIKQDGSEKYYVDSVKGRFTISRDNAKNSLYLQMNSLRAEDTAVYCCASGYHLFDYWGQGTLVTVSS
VL: not shown
notes: AlivaMab chimeric IgG, human kappa LC
[1]
  signal vs NO COMP=100: 91%
[2]
  signal vs NO COMP=100: 76%
[3]
  signal vs NO COMP=100: 2%
[4]
  signal vs NO COMP=100: 77%
[5]
  signal vs NO COMP=100: 3%
[6]
  signal vs NO COMP=100: 99%

B2: CCK-526A (antibody, V domains shown)
VH: EVQVVESGGGLVQPGKSLRLSCAASGFTFSTYWMTWVRQAPGKGLEWVANIKQDGSEKYYVDSVKGRFTISRDNAKNSLYLQMNSLRAEDTAVYCCASGYHLFDYWGQGTLVTVSS
VL: not shown
notes: as for B1
[1]
  signal vs NO COMP=100: 84%
[2]
  signal vs NO COMP=100: 82%
[3]
  signal vs NO COMP=100: 3%
[4]
  signal vs NO COMP=100: 92%
[5]
  signal vs NO COMP=100: 9%
[6]
  signal vs NO COMP=100: 68%

B3: CCL-310A (antibody, V domains shown)
VH: EVQLVESGGGLVQPGGSLRLSCAASGFTFSNYWMRWVRQAPGKGLEWVANIKQDGSEKYYVDSVKGRFTISRDNAKYSLYLQMNSLRAEDTAVYYCARDRLGIFDYWGQGTLVTVSS
VL: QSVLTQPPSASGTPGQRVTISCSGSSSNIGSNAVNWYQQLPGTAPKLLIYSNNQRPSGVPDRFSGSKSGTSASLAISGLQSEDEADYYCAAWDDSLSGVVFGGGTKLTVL
[7]
  Kd: 79 pM
  koff: 4.35e-06 s⁻¹
  kon: 50600 M⁻¹ s⁻¹

B4: CCL-231A (antibody, V domains shown)
VH: QVQLQESGPGLVKPSETLSLTCTVSGGSISSYYWSWIRQPAGKGLEWIGRIYTSGNTNYNPSLKSRVTMSLDTSKNQFSLKLSSVTAADTAVYYCARVGAIGVDAFDIWGQGTMVTVSS
VL: QSALTQPASVSGSPGQSITISCTGTSSDVGSYNLVSWYQQHPGKAPKLMIYEGSKRPSGVSNRFSGSKSGNTASLTISGLQAEDEADYYCCSYAGSSTFVVFGGGTKLTVL
notes: AlivaMab chimeric IgG, human lambda LC
[7]
  Kd: 578 pM
  koff: 4.71e-05 s⁻¹
  kon: 81000 M⁻¹ s⁻¹

B5: CCK-435A (antibody, V domains shown)
VH: QVQLQQWGAGLLKPSETLSLTCAVYGGSCSAYYWSWIRQPPGKGLEWIGEINHSGSTNYNPSLKSRVTISVDTSRNQFSLKLSSVTAADTAVYYCAREADAFDIWGQGTMVTVSS
VL: not shown
notes: as for B1
[1]
  signal vs NO COMP=100: 17%
[2]
  signal vs NO COMP=100: 96%
[3]
  signal vs NO COMP=100: 75%
[4]
  signal vs NO COMP=100: 85%
[5]
  signal vs NO COMP=100: 86%
[6]
  signal vs NO COMP=100: 79%

B6: CCL-329A (antibody, V domains shown)
VH: QVQPQESGPGLVKPSETLSLTCTVSGGSISGYYWSWIRQPAGTGLEWIGRIYTSGSTNYNSSLKSRVTMSVDTSKNQFSLKLSSVTAADTAVYYCARERMATIFDYWGQGTLVTVSS
VL: not shown
notes: as for B4
[7]
  Kd: 38 pM
  koff: 4.46e-06 s⁻¹
  kon: 118000 M⁻¹ s⁻¹

B7: CCL-327A (antibody, V domains shown)
VH: QVQLQESGPGLVKPSETLSLTCSVSGGSISSYHWSWIRQPAGKGLEWIGRIYTGGSTNYNPSLKSRVTMSVDTSKNQFSLKLSSVTAADTAVYYCARERLTGYFDYWGQGTLVTVSS
VL: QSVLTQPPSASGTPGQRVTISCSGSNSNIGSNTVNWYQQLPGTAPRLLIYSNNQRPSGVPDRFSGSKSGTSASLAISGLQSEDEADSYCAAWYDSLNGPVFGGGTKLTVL
notes: as for B4
[7]
  Kd: 1410 pM
  koff: 0.000189 s⁻¹
  kon: 133000 M⁻¹ s⁻¹

B8: CCL-217A (antibody, V domains shown)
VH: QVQLQESGPGLVKPSETLSLTCTVSGGSISSYYWSWIRQPAGKGLEWIGRIYSSGTTNYNPSLKSRVTMSVETSKNQFSLNLSSVTAADTAVYYCARERITGHFDYWGQGTLVTVSS
VL: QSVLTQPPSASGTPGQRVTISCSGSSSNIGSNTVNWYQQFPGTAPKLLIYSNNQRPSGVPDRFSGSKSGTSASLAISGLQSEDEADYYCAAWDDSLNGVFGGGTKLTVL
notes: as for B4
[7]
  Kd: 1220 pM
  koff: 0.00012 s⁻¹
  kon: 98100 M⁻¹ s⁻¹

B9: CCK-402A (antibody, V domains shown)
VH: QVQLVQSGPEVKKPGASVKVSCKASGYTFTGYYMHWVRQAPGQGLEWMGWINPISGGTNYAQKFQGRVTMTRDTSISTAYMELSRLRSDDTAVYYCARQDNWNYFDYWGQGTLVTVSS
VL: DIVMTQTPLSLPVTPGEPASISCRSSQSLLDSDDGNTYLDWFLQKPGQSPQLLIYTLSYRASGVPDRFSGSGSGTDFTLKISRVEADDVGVYYCMQRIEFPFTFGQGTKLEIK
notes: as for B1
[1]
  signal vs NO COMP=100: 147%
[2]
  signal vs NO COMP=100: 11%
[3]
  signal vs NO COMP=100: 126%
[4]
  signal vs NO COMP=100: 145%
[5]
  signal vs NO COMP=100: 131%
[6]
  signal vs NO COMP=100: 131%

B10: CCL-340A (antibody, V domains shown)
VH: EVQLVESGGGLVKPGGSLRLSCAASGFTFSSYSMKWVRQAPVKGLEWVSSISSSSSYIYYGDSVKGRFTISRDNAKNSLYLQMNSLRAEDTAVYYCARERLGRAFDIWGQGTMVTVSS
VL: not shown
notes: as for B4
[7]
  Kd: 367 pM
  koff: 2.72e-05 s⁻¹
  kon: 74100 M⁻¹ s⁻¹

B11: CCK-417A (antibody, V domains shown)
VH: QVTLRESGPALVKPTQTLTLTCTFSGFSLSTSGMCVSWIRQPPGKALECLALIDWDDDKYYSTSLKTRLTISKDTSKNQVVLTMTNMDPVDTATYYCARTQLGIADYWGQGTLVTVSS
VL: AIRMTQSPSSFSASTGDRVTITCRASQGISSYLAWYQQKPGKAPKLLIYAASTLQSGVPSRFSGSGSGTDFTLTISCLQSEDFATYYCQQYYSYPFTFGPGTKVDIK
notes: as for B1
[1]
  signal vs NO COMP=100: 113%
[2]
  signal vs NO COMP=100: 110%
[3]
  signal vs NO COMP=100: 19%
[4]
  signal vs NO COMP=100: 110%
[5]
  signal vs NO COMP=100: 3%
[6]
  signal vs NO COMP=100: 6%

B12: CCK-422A (antibody, V domains shown)
VH: QVQLQESGPGLVKPSETLSLTCSVSGGSISSYYWSWIRQPPGKGLEWIGYVSYSGGTNYNPSLKSRVTISVDTSKNQFSLKLSSVTAADTAVYYCARGFDYWGQGTLVTVSS
VL: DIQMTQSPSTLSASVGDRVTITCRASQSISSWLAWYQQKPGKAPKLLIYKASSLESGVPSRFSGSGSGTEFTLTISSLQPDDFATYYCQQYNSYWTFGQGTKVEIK
notes: as for B1
[1]
  signal vs NO COMP=100: 111%
[2]
  signal vs NO COMP=100: 111%
[3]
  signal vs NO COMP=100: 31%
[4]
  signal vs NO COMP=100: 107%
[5]
  signal vs NO COMP=100: 6%
[6]
  signal vs NO COMP=100: 11%

B13: CCK-458A (antibody, V domains shown)
VH: QITLKESGPPLVKPTQTLTLTCTFSGFSLSTSGVGVGWIRQPPGKALEWLALIYWNDDKRYSPSLKSRLTITKDTSKNQVVLTMTNMDPVDTATYYCAHSPRYSGYFDYWGQGTLVTVSS
VL: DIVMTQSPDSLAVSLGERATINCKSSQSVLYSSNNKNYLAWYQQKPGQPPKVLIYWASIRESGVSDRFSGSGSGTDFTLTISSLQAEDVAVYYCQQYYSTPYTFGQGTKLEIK
notes: as for B1
[1]
  signal vs NO COMP=100: 79%
[2]
  signal vs NO COMP=100: 66%
[3]
  signal vs NO COMP=100: 17%
[4]
  signal vs NO COMP=100: 22%
[5]
  signal vs NO COMP=100: 6%
[6]
  signal vs NO COMP=100: 2%

B14: CCK-542A (antibody, V domains shown)
VH: QVQLQESGPGLVKPSETLSLTCTVSGGSISSYYWSWIRQPAGKGLEWIGRIYSSGSINYNPSLKSRVTMSVDTSKNQFSLKLSSVTAADTAVFYCARDRAFYGMDVWGQGTTVTVSS
VL: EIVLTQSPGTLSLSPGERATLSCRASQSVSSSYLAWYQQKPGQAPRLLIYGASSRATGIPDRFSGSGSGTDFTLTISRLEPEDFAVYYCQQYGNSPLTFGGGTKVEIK
notes: as for B1
[1]
  signal vs NO COMP=100: 76%
[2]
  signal vs NO COMP=100: 111%
[3]
  signal vs NO COMP=100: 10%
[4]
  signal vs NO COMP=100: 7%
[5]
  signal vs NO COMP=100: 23%
[6]
  signal vs NO COMP=100: 94%

B15: CCK-412A (antibody, V domains shown)
VH: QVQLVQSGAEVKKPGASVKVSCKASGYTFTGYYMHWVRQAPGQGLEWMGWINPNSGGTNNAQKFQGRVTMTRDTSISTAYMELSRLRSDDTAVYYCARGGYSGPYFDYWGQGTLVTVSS
VL: DIQMTQSPSSVSASVGDRVTITCRASPGISSWLAWYQQKPEKAPKLLIYAASSLQSGVPSRFSGSGSGTDFTLTISSLQPEDFATYYCQQAYSFPYTFGQGTKLEIK
notes: as for B1
[1]
  signal vs NO COMP=100: 91%
[2]
  signal vs NO COMP=100: 78%
[3]
  signal vs NO COMP=100: 110%
[4]
  signal vs NO COMP=100: 70%
[5]
  signal vs NO COMP=100: 3%
[6]
  signal vs NO COMP=100: 13%

B16: CCL-313A (antibody, V domains shown)
VH: QVQLQESGPGLVKPSETLSLTCTVSGGSISSYYWSWIRQPPGKGLEWIGYIYYTGSTNYNPSLKSRVTISVDTSKNQFSLKLSSVTAADTAVYYCARGWWELTFFDYWGQGTLVTVSS
VL: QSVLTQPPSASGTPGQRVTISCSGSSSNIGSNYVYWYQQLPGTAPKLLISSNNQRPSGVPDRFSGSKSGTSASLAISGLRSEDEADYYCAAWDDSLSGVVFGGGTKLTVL
notes: as for B4
[7]
  Kd: 1240 pM
  koff: 9.09e-05 s⁻¹
  kon: 73600 M⁻¹ s⁻¹

B17: CCK-455A (antibody, V domains shown)
VH: EVQLVESGGGLVQPGGSLRLSCAASGFTFSSYWMHWVRQAPGKGLVWVSRINSDGSSTSYADSVKGRFTISRDNAKNTLYLQMNSLRAEDTAVYYCARDGGTTGAFDIWGQGTMVTVSS
VL: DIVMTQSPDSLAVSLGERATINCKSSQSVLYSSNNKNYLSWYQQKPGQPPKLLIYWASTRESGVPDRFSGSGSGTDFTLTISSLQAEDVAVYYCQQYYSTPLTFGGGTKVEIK
notes: as for B1
[1]
  signal vs NO COMP=100: 79%
[2]
  signal vs NO COMP=100: 54%
[3]
  signal vs NO COMP=100: 28%
[4]
  signal vs NO COMP=100: 58%
[5]
  signal vs NO COMP=100: 0%
[6]
  signal vs NO COMP=100: -1%

B18: CCL-215A (antibody, V domains shown)
VH: EVQLVESGGGLVQPGGSLRLSCAASGFTFSSYSMNWVRQAPGKGLEWVSYISSSSSTIYYADSVKGRFTISSDNAKNSLYLQMDSLRDEDTAVYYCARDRLGIPFDYWGQGTLVTVSS
VL: not shown
notes: as for B4
[7]
  Kd: 215 pM
  koff: 1.83e-05 s⁻¹
  kon: 85300 M⁻¹ s⁻¹

B19: CCL-225A (antibody, V domains shown)
VH: EVQLVESGGGLVKPGGSLRLSCAASGFTFSSYNMNWVRQAPGKGLEWVSSISSSSNYIYYADSVKGRFTISGDTAKNSLFLQMISLRVEDTAVYYCARDRLGIPFDYWGQGSLVTVSS
VL: not shown
notes: as for B4
[7]
  Kd: 277 pM
  koff: 1.38e-05 s⁻¹
  kon: 50000 M⁻¹ s⁻¹

B20: CCK-522A (antibody, V domains shown)
VH: QITLKESGPTLVKPTQTLTLTCTFSGFSLSTSGVGVGWIRQPPGKALEWLALIYWNDDKRYSPSLKSRLTITKDTSKNQVVLTMTNMDPVDTATYYCAHQERRSGWSFDYWGQGTLVSVSS
VL: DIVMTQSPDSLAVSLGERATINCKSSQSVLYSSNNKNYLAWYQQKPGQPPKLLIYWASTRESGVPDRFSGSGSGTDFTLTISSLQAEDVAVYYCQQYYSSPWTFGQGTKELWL
notes: as for B1
[1]
  signal vs NO COMP=100: 67%
[3]
  signal vs NO COMP=100: 24%
[4]
  signal vs NO COMP=100: 34%
[5]
  signal vs NO COMP=100: 7%
[6]
  signal vs NO COMP=100: 33%

B21: CCK-505A (antibody, V domains shown)
VH: EVQLVESGGGLVQPGGSLRLSCAASGFTFSSYSMNWVRQAPGKGLEWVSYISSSSSTIYYADSVKGRFTISRDNAKNSLYLQMNSLRDEDTAVYYCAREGERFCGADCYPHWFDPWGQGTLVTVSS
VL: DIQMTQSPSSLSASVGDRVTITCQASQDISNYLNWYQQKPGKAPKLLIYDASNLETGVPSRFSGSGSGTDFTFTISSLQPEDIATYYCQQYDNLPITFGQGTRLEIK
notes: as for B1
[1]
  signal vs NO COMP=100: 111%
[2]
  signal vs NO COMP=100: 110%
[3]
  signal vs NO COMP=100: 10%
[4]
  signal vs NO COMP=100: 53%
[5]
  signal vs NO COMP=100: 1%
[6]
  signal vs NO COMP=100: 0%
